Laboratory results published in US10143730B2, “Peptides and combination of peptides for use in immunotherapy against various cancers” (immatics biotechnologies GmbH, priority 2015, dated 2018).

Biological target: T1, HLA-A*02 (Homo sapiens, UniProt P04439, D140Y/D185E/D98H/E176V/E277Q/G131W/G231S/I119V/I121R/I166T/I218V/L300P/N151K/N90K/P208A/P217A/Q86G/Q94H/R138H/R169H)
T1 construct: made in house
Assay: MHC binding assay, UV-ligand exchange with beta2m ELISA (peptide exchange yield)
Details: binding to HLA-A*02
Description: Candidate peptides for T cell based therapies according to the present invention were further tested for their MHC binding capacity (affinity). The individual peptide-MHC complexes were produced by UV-ligand exchange, where a UV-sensitive peptide is cleaved upon UV-irradiation, and exchanged with the peptide of interest as analyzed. Only peptide candidates that can effectively bind and stabilize the peptide-receptive MHC molecules prevent dissociation of the MHC complexes. To determine the yield of the exchange reaction, an ELISA was performed based on the detection of the light chain (β2m) of stabilized MHC complexes. The assay was performed as generally described in Rodenko et al. (Rodenko et al., 2006).
96 well MAXISorp plates (NUNC) were coated over night with 2 ug/ml streptavidin in PBS at room temperature, washed 4× and blocked for 1h at 37° C. in 2% BSA containing blocking buffer. Refolded HLA-A*02:01/MLA-001 monomers served as standards, covering the range of 15-500 ng/ml. Peptide-MHC monomers of the UV-exchange reaction were diluted 100 fold in blocking buffer. Samples were incubated for 1h at 37° C., washed four times, incubated with 2 ug/ml HRP conjugated anti-32m for 1h at 37° C., washed again and detected with TMB solution that is stopped with […]. Absorption was measured at 450 nm. Candidate peptides that show a high exchange yield (preferably higher than 50%, most preferred higher than 75%) are generally preferred for a generation and production of antibodies or fragments thereof, and/or T cell receptors or fragments thereof, as they show sufficient avidity to the MHC molecules and prevent dissociation of the MHC complexes.

Substance	Peptide exchange (MHC class I binding score, peptide exchange yield)
84 (ALCPRIHEV; listed as Homo sapiens) [compound 84]	++++ (> = 75% = ++++)
85 (VLNDILVRA; listed as Homo sapiens) [compound 85]	+++ (50%-75% = +++)
86 (SVDSHFQEV; listed as Homo sapiens) [compound 86]	++ (20%-49% = ++)
87 (TIYKDFVYI; listed as Homo sapiens) [compound 87]	++ (20%-49% = ++)
88 (AQADHLPQL; listed as Homo sapiens) [compound 88]	++ (20%-49% = ++)
89 (QLAPVFQRV; listed as Homo sapiens) [compound 89]	++ (20%-49% = ++)
94 (LLLPAVPVGA; listed as Homo sapiens) [compound 94]	+++ (50%-75% = +++)
95 (GLLGSLFFL; listed as Homo sapiens) [compound 95]	++++ (> = 75% = ++++)
98 (RLFPDFFTRVAL; listed as Homo sapiens) [compound 98]	++ (20%-49% = ++)
99 (YLLQSVNQLLL; listed as Homo sapiens) [compound 99]	++ (20%-49% = ++)
100 (ALLGMIIVGV; listed as Homo sapiens) [compound 100]	+ (<20% = +)
101 (ALADFMLSL; listed as Homo sapiens) [compound 101]	+++ (50%-75% = +++)
102 (VLLDIQEVFQI; listed as Homo sapiens) [compound 102]	+++ (50%-75% = +++)
103 (YLVSEIFKA; listed as Homo sapiens) [compound 103]	+++ (50%-75% = +++)
104 (ALISWQPPRA; listed as Homo sapiens) [compound 104]	+++ (50%-75% = +++)
105 (ALLGTKILL; listed as Homo sapiens) [compound 105]	+++ (50%-75% = +++)
106 (FINDSIVYL; listed as Homo sapiens) [compound 106]	+++ (50%-75% = +++)
107 (LLVPTSGIYFV; listed as Homo sapiens) [compound 107]	+++ (50%-75% = +++)
108 (ILLKNLVTI; listed as Homo sapiens) [compound 108]	++ (20%-49% = ++)
109 (SLDPSVTHL; listed as Homo sapiens) [compound 109]	++ (20%-49% = ++)
110 (FLLGVSKEV; listed as Homo sapiens) [compound 110]	+++ (50%-75% = +++)

Substance	Peptide exchange (MHC class I binding score, peptide exchange yield)
111 (AIVDLIHDI; listed as Homo sapiens) [compound 111]	++ (20%-49% = ++)
112 (SLGKFTFDV; listed as Homo sapiens) [compound 112]	++++ (> = 75% = ++++)
113 (FLERGLESA; listed as Homo sapiens) [compound 113]	++ (20%-49% = ++)
114 (QLIQTLHAV; listed as Homo sapiens) [compound 114]	+++ (50%-75% = +++)
115 (SLDPDTLPAV; listed as Homo sapiens) [compound 115]	++ (20%-49% = ++)
117 (KMPDVELFV; listed as Homo sapiens) [compound 117]	+++ (50%-75% = +++)
118 (QLWQFLVTL; listed as Homo sapiens) [compound 118]	+++ (50%-75% = +++)
119 (FIIQGLRSVGA; listed as Homo sapiens) [compound 119]	+++ (50%-75% = +++)
120 (VTPVTVSAV; listed as Homo sapiens) [compound 120]	+ (<20% = +)
121 (FTIFRTISV; listed as Homo sapiens) [compound 121]	+++ (50%-75% = +++)
122 (GVVDPVHGV; listed as Homo sapiens) [compound 122]	++ (20%-49% = ++)
123 (VLDPALPALV; listed as Homo sapiens) [compound 123]	++ (20%-49% = ++)
124 (KVMATIEKV; listed as Homo sapiens) [compound 124]	++ (20%-49% = ++)
125 (SLADYEHFV; listed as Homo sapiens) [compound 125]	++++ (> = 75% = ++++)
126 (QMFQYFITV; listed as Homo sapiens) [compound 126]	++++ (> = 75% = ++++)
127 (KLDGNELDL; listed as Homo sapiens) [compound 127]	+++ (50%-75% = +++)
128 (TQSPATLSV; listed as Homo sapiens) [compound 128]	++ (20%-49% = ++)
129 (RLQDILWFL; listed as Homo sapiens) [compound 129]	++++ (> = 75% = ++++)
130 (SLLGGTFVGI; listed as Homo sapiens) [compound 130]	+++ (50%-75% = +++)
131 (VTSNSGILGV; listed as Homo sapiens) [compound 131]	+++ (50%-75% = +++)
132 (ILGEVLAQL; listed as Homo sapiens) [compound 132]	+++ (50%-75% = +++)

Substance	Peptide exchange (MHC class I binding score, peptide exchange yield)
133 (ALLPRLHQL; listed as Homo sapiens) [compound 133]	++++ (> = 75% = ++++)
134 (GLAVPTPSV; listed as Homo sapiens) [compound 134]	+++ (50%-75% = +++)
135 (HLSTIIHEA; listed as Homo sapiens) [compound 135]	+++ (50%-75% = +++)
136 (FLFGGVLMTL; listed as Homo sapiens) [compound 136]	++ (20%-49% = ++)
142 (ILVEGISTV; listed as Homo sapiens) [compound 142]	+++ (50%-75% = +++)
143 (ALLPELREV; listed as Homo sapiens) [compound 143]	+++ (50%-75% = +++)
145 (YLWATIQRI; listed as Homo sapiens) [compound 145]	+++ (50%-75% = +++)
146 (ALHFSEDEI; listed as Homo sapiens) [compound 146]	++ (20%-49% = ++)
147 (YLMDDTVEI; listed as Homo sapiens) [compound 147]	++++ (> = 75% = ++++)
148 (MLAGIAITV; listed as Homo sapiens) [compound 148]	+++ (50%-75% = +++)
152 (MMVGDLLEV; listed as Homo sapiens) [compound 152]	+++ (50%-75% = +++)
153 (FISERVEVV; listed as Homo sapiens) [compound 153]	++++ (> = 75% = ++++)
154 (RLLGTEFQV; listed as Homo sapiens) [compound 154]	+++ (50%-75% = +++)
155 (LLNPVVEFV; listed as Homo sapiens) [compound 155]	+++ (50%-75% = +++)
156 (ILGDLSHLL; listed as Homo sapiens) [compound 156]	+++ (50%-75% = +++)
157 (TLTSLLAQA; listed as Homo sapiens) [compound 157]	+++ (50%-75% = +++)
234 (LLSPHNPAL; listed as Homo sapiens) [compound 234]	+++ (50%-75% = +++)
236 (STIAILNSV; listed as Homo sapiens) [compound 236]	+++ (50%-75% = +++)
237 (ALAPHLDDA; listed as Homo sapiens) [compound 237]	+++ (50%-75% = +++)
